test: yeast display, Sf9 membrane polyspecificity reagent, FACS + sequencing; frameworks hold sequencing errors
In short: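 In a synthetic yeast display library (Saccharomyces cerevisiae BJ5465), nanobody expression was induced with galactose for 36–48 hours. FACS gates were set low and high (top ~1%) using anti-HA fluorescence for expression and streptavidin fluorescence for binding of the Sf9 membrane reagent. Each polyreactivity label is drawn from the gate of origin.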

Sequence	polyreactivity (PSR sort gate)
QVQLVESGGGLVQAGGSLRLSCAASGSTFAIYPMGWYRQAPGKETALVAAITRSGGNTYYADSVKGRFTISRDNAKNTVYLQMNSLKPEDTAVYYCNAETYYWSAYAQYDYWGQGTQVTVSS	high polyreactivity
QVQLVESGGGLVQAGGSLRLSCAASGIIFPLYAMGWYRQAPGKERELVADITRGGSTYYADSVKGRFTISRDNAKNTVYLQMNSLKPEDTAVYYGNKQKRWTYSHYFPTTYDYWGQGTQVTVSS	high polyreactivity
QVQLVESGGGLVQAGGSLRLSCAASGFIFSYYALGWYRQATGKERELVAAITYSGVRTYYADSVKGRFTISRDNAKNTVYLQMNSLKPVDTAVYYCNTKHRTKPTRPDDYWGQGTQVTVSS	high polyreactivity
QVQLVESGGGLVQPGGSLRLIFAASGSIFHYNAIGWYTQAPGKEREFVAVISKSSGSTFYADSVKGRFTISRDNAKNTVYLQMNSLKPEDTAVYYCNLVTKRYPIIGNYWGQGSQVTVSS	high polyreactivity
QVQLVESGGGLVQAGGSLRLSCAASGFTFKQNAMGWYRQAPGKERELVAAISSSGRTNYADSVKGRFTISRDNAKNTVYLQMNSLKPEDTAVYYCAAATYNAYGRRSRYYHGYNSWGQGTQVTVSS	high polyreactivity
QVQLVESGGGLVHAGGSLSLSCAASGSIFGYYAKGWYRQAPGKERELVAAITVSGGSTYYADSVKGRFTISRDNAKNTDYLQLISLKPEDTAVYYCAADDIYGEYYYWGQGTQVTVSS	high polyreactivity
QVQLVESGGGLVQAGGSLRLSCAASGRISQIYARGWYRQAPGKERELVASISSSGSRTYYADSVKGRFTISRDHAKNTVYLQMNSLKPEDTAVYYCAATYLKVHGEYDYWGQGTQVTVSS	high polyreactivity
QVQLVESGGGLVQAGGSLRLSCAASGFTFYSYAMGWYRQAPGKERELVAAISWSGTRTYYADSVKGRFTISRDNAKNTVYLQMNSLKPEDTAVYYCAARGYRYGYGYWGQGTQVTVSS	high polyreactivity
QVQLVESGGGLVQAGGSLRLTCAASGSIFYRNAMGWYRQAPGKERELVAAISTDGSTNYADSVKGRFTISRDNAKNTVYLHMNSLIPEDTAVSYCAAPWTQILDYWGQGTQVTVSS	low polyreactivity
QVQLVESGGGLVQAGGSLRLSCAASGLIFRVYAMGRYRQAPGKERELVATITRGGRTYYADSVKGRFTISRDNAKNTVYLQMNSLKPEDTAVYYCAVLSVRRSYNYWGQGTQVTVSS	high polyreactivity
QVQLQESGGGLVQAGGILRLSCAACGNIFPSAVMGWYRQALGKEREFVATINSGSNTYYADSVNGRFSISRDNAKHTVYLHRNSLKLQDTAVYYCAAYFKLPAWHTSWGQGTQVSVSS	low polyreactivity
QGQLVESGGGLVQEGGSLRLSCAASGRIFQNYAMGWYRQAPGKERELVATIDIGGSTKYADSVKGRFTISRDNAKNTVYLQMNSLKPEDTAVYYCNVPAFFYGYYRFDYWGQGTQVTVSS	high polyreactivity
QVQLVESGGGLVQAGGSLRLSCAASGITFPANAMGWYRQAPGKERELVAAISSSGGSTYYADSVKGRFTISRDNAKNTVYLQMNSLKPEDTAVYYCAAYYGPSRSLYYYWGQGTQVTVSS	high polyreactivity
QVQLVESGGGLVQAGGSLRLSCAASGSTFGPYAMGWYRPAPGKERELVADITSSDGSTYYADSVKGRFTISRDNAKNSVYFHLNSLKREDTAVYYCNADYRYIWTYWGWTIYDYWGQGTQVTVSS	high polyreactivity
QVQLVESGGGLVQAGGSLRLSCAASGRIFTYNAMGWSRQAPGKERELVAANTSSGGSTYYADSVKGRFTISRDYAKNTVYLQMNSLKPEDTAVYYCATVRRGRDYWGQGTQVTVSS	high polyreactivity
QVQLVESGRGLVQAGGSLRLSCAASGRIFGRNTIGWYRQAPRKEREMVAVISFRGGSTYADSVKGRFTISRDNAKNTVYLQMNSLKPEDTAVYYCARTAYSTRPYRFDYWGQGTQVTVSS	high polyreactivity

Sequence	polyreactivity (PSR sort gate)
QVQLVESGGGLVQAGGSLRLSCAASGRIFWINAMGWYRQAPGKERELVAAITTDGGTTYYADSVKGRFTISRDNAKNTVYLQMNSLKPEDTAVYYCAADAAGQYWWQTYDYWGQGTQVTVSS	high polyreactivity
QVQLVESVGGLVQAGGRLRLSCAASGLTFTHYTMGWYIQAPGKERELVAAISQTGGSTYYADSVKGRFTISRDNEKNTVYLQMNSQKPEDTADYYCSRVFPRPRPGYYNWGQGTQVTVSS	high polyreactivity
QVQLVESVGGLVQAGGSLRLSCAASGRIFRYYAMGWSRQAPGKERELVAGISRGTSTYYADSVKGRFTISRDNAKNTVYLQMNSLKPEDTAVYYCAKGSIQYFRPYTFYTWGQGTQVTVSS	high polyreactivity
QVQLVESGGGLVQAGGSLRLNCAASGRNLPFYAMGWYRQAPGKERDLVATISWTSDSTYYADSVKGRFTISRDNPKNTVFLQMNSLIREVTGVYYCASVYTYTYASTVIYDHWGQGTQVTVSS	low polyreactivity
QVQLVESGRGLVQAGGSLRLSCAASGSTFRYNTMGSYRQAPGKERELVAAITGGGGSTYYADSVKGRFTISRDNAKNTVYLQMNSMKPEDTAVYYCATRSYALGYDYGGQGTQVTVSS	low polyreactivity
QVQLVESGGGLVQAGGSLRLSCAASGRTLLYNAMGWYRQAPGKERELVAAISYRGGSTYYADSVKGRFTISRDNAKNTVYLQMNSLKPEDTAVYYCAKVTYPYIRWYYPGYDYWGQGTQVTVSS	high polyreactivity
QVQLVESGGGLVQAGGSLRLSCAASGIIFVYYGKGWYRQAPGKERELVAAISWSGDDTYYADSVKGRFTISRDNAKNTVYLQMNSLKPEDTAVYYCAARPGYVHIDFDYWGQGSQVTVSS	low polyreactivity
QVQLVESGGGLVQAGGSLRLSCAASGFIFYQYAMGWYRQAPGKERELVAAISTRGGSTYYADSVKGRFTISRDNAKNTVYLQMNSLKPEDTAVYYCNVLKYLSPGTYDYDYWGQGTQVTVSS	high polyreactivity
QVQLVESGGGLVQAGGSLRLSSAASGSILYFNAMGWYRQAPGKERELVAAISRSGGSTYYADSVKGRFTISRDNAKNTVYLQMNSLKPEDTAVYYCAAVYIRCRGNRFDYWGQGTQVTVSS	high polyreactivity
QVQLVESGGGLVQAGGSLRLSCAASGSTFHPNGMGWYRQAPGKERELVAAIRRSGGSTYYADSVKGRFTISRDNAKNTVYLQMNSLKPEDTAVYYCAAKHYYYSPYVRYDPPPGYYWGQGTQVTVSS	high polyreactivity
QVQLVESGGGLVQAGGSLRLSCAASGRIFPTNAMGWYRQAPGKERELVAAIPVSGGSTYYADSVKGRFTISRDNAKKTVYLQMNSLKPEDTAVYYCAVDDRASVGSRLDHWGQGTQVTVSS	low polyreactivity
QVQLVESGGGLVQAGGSLRLSCAASGSIFVYNAMGWYRQAPGKERELVAGITFIGGSTYYADSVKGRFTISRDTAKNTVYLPMNSLKPEDTAVYYRNADGAPGIFYGYDSWGQGTQVTVSS	low polyreactivity
QVQLVESGGGLVQAGGSLRLSCAASGFIFPYYAMGWYRQAPGKERELVAAISGSGGSTYYADSVKGRFTISRDNANYTVYLQMNSLKPEDTAVYYCAASARRLNMGYWGQGTQVTVSS	high polyreactivity
QVQLVESGGGLVQAGGSLRLSCAASGLTFPYYAMGWYRQAPGKERELVAAISNSGGSTYYADSVKGRFTISRDNAKNTVYLQMNIVKPEDTAVYYCAAYNSYSDYGYWGHGTQVTVSS	high polyreactivity
QVQLVESGGGLVQAGGSLRLSCAASGFILYVNAMGWYRQAPGKERELVAGITSSGTSTYADSVKGRFTISRDNAKNTVYLQMNSLKPEDTAVYYCAALRRPYGARDYDYWGQGTQVTVSS	low polyreactivity
QVQLVESGGGLVQAGVSLRISCAASGFTFSRNAMGWYRQAPGKESELVAAITWSGGRSYYADSVKGRFTISGDNAKNPVYLQMNSLKPEDTAVYYCAARKYPLRSAYDYWGPGTQVTVSS	low polyreactivity
